*1 amine or outer side, *2 acyl side, *3 side chain or, on linkers, in order; H or OH if unused. Side-chain parts run from the residue outwards. [ ]: non-standard residue; d: D form. The star is where a group is joined. C20 diacid = O=C(O)CCCCCCCCCCCCCCCCCCC(=O)*; γGlu = O=C(O)[C@H](CCC(=O)[*:2])N[*:1]; Decanoyl = CCCCCCCCCC(=O)*; Pentanoyl = CCCCC(=O)*; Aib = CC(C)(N)C(=O)O
Key:
[1] = target: human corticotropin-releasing factor 2a (CRF2a receptor) (human), Q13324; experiment: cell-based or functional assay
Chain of human corticotropin-releasing factor 2a (CRF2a receptor) (human), Q13324 (Q13324 20-411): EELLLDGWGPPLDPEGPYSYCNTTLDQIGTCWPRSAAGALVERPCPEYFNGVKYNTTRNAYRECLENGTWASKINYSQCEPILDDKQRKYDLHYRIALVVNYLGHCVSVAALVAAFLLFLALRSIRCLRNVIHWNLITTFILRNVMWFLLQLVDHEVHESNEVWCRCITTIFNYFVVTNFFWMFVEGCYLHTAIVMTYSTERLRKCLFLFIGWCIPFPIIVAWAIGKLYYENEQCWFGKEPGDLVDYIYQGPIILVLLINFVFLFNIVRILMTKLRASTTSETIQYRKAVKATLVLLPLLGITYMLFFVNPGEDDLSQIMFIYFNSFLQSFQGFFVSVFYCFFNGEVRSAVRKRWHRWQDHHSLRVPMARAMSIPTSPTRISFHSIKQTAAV

CRF1R receptor = target: T1, CRF1R receptor (UniProt P34998 24-415, limits assumed); experiment: cell-based or functional assay
T1 sequence (looked up): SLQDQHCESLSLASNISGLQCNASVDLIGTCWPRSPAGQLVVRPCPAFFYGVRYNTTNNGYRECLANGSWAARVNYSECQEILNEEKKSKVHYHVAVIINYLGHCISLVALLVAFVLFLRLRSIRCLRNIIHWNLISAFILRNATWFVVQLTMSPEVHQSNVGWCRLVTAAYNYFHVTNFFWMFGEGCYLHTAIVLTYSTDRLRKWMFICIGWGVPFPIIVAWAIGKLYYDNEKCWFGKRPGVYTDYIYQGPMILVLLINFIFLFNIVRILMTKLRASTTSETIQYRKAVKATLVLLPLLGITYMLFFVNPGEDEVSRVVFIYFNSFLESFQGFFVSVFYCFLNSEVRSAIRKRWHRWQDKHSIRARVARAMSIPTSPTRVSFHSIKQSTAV

B1: SEQ ID NO 220 (peptide)
peptide: Pentanoyl-VLSLD[dV]PIKLK([γGlu-C20 diacid])KILLEQEKQK[Aib]QREQAETN[Aib]QILAQV-NH2
SMILES: CCCCC(=O)N[C@H](C(=O)N[C@@H](CC(C)C)C(=O)N[C@@H](CO)C(=O)N[C@@H](CC(C)C)C(=O)N[C@@H](CC(=O)O)C(=O)N[C@@H](C(=O)N1CCC[C@H]1C(=O)N[C@H](C(=O)N[C@@H](CCCCN)C(=O)N[C@@H](CC(C)C)C(=O)N[C@@H](CCCCNC(=O)CC[C@H](NC(=O)CCCCCCCCCCCCCCCCCCC(=O)O)C(=O)O)C(=O)N[C@@H](CCCCN)C(=O)N[C@H](C(=O)N[C@@H](CC(C)C)C(=O)N[C@@H](CC(C)C)C(=O)N[C@@H](CCC(=O)O)C(=O)N[C@@H](CCC(N)=O)C(=O)N[C@@H](CCC(=O)O)C(=O)N[C@@H](CCCCN)C(=O)N[C@@H](CCC(N)=O)C(=O)N[C@@H](CCCCN)C(=O)NC(C)(C)C(=O)N[C@@H](CCC(N)=O)C(=O)N[C@@H](CCCNC(=N)N)C(=O)N[C@@H](CCC(=O)O)C(=O)N[C@@H](CCC(N)=O)C(=O)N[C@@H](C)C(=O)N[C@@H](CCC(=O)O)C(=O)N[C@H](C(=O)N[C@@H](CC(N)=O)C(=O)NC(C)(C)C(=O)N[C@@H](CCC(N)=O)C(=O)N[C@H](C(=O)N[C@@H](CC(C)C)C(=O)N[C@@H](C)C(=O)N[C@@H](CCC(N)=O)C(=O)N[C@H](C(N)=O)C(C)C)[C@@H](C)CC)[C@@H](C)O)[C@@H](C)CC)[C@@H](C)CC)C(C)C)C(C)C
[1]
  EC50 [nM] (cAMP): 0.27 nM
CRF1R receptor
  Emax (% I): 32%

B2: SEQ ID NO 221 (peptide)
peptide: Pentanoyl-VLSLD[dV]PIKLK([γGlu-C20 diacid])KILLEQEAQKKQREQAETN[Aib]QILAQV-NH2
SMILES: CCCCC(=O)N[C@H](C(=O)N[C@@H](CC(C)C)C(=O)N[C@@H](CO)C(=O)N[C@@H](CC(C)C)C(=O)N[C@@H](CC(=O)O)C(=O)N[C@@H](C(=O)N1CCC[C@H]1C(=O)N[C@H](C(=O)N[C@@H](CCCCN)C(=O)N[C@@H](CC(C)C)C(=O)N[C@@H](CCCCNC(=O)CC[C@H](NC(=O)CCCCCCCCCCCCCCCCCCC(=O)O)C(=O)O)C(=O)N[C@@H](CCCCN)C(=O)N[C@H](C(=O)N[C@@H](CC(C)C)C(=O)N[C@@H](CC(C)C)C(=O)N[C@@H](CCC(=O)O)C(=O)N[C@@H](CCC(N)=O)C(=O)N[C@@H](CCC(=O)O)C(=O)N[C@@H](C)C(=O)N[C@@H](CCC(N)=O)C(=O)N[C@@H](CCCCN)C(=O)N[C@@H](CCCCN)C(=O)N[C@@H](CCC(N)=O)C(=O)N[C@@H](CCCNC(=N)N)C(=O)N[C@@H](CCC(=O)O)C(=O)N[C@@H](CCC(N)=O)C(=O)N[C@@H](C)C(=O)N[C@@H](CCC(=O)O)C(=O)N[C@H](C(=O)N[C@@H](CC(N)=O)C(=O)NC(C)(C)C(=O)N[C@@H](CCC(N)=O)C(=O)N[C@H](C(=O)N[C@@H](CC(C)C)C(=O)N[C@@H](C)C(=O)N[C@@H](CCC(N)=O)C(=O)N[C@H](C(N)=O)C(C)C)[C@@H](C)CC)[C@@H](C)O)[C@@H](C)CC)[C@@H](C)CC)C(C)C)C(C)C
[1]
  EC50 [nM] (cAMP): 0.18 nM
CRF1R receptor
  EC50: 22.5 nM
  Emax (% I): 79%

B3: SEQ ID NO 222 (peptide)
peptide: Pentanoyl-VLSLD[dV]PIKLK([γGlu-C20 diacid])KILLEQEKQKAQREQAETN[Aib]QILAQV-NH2
SMILES: CCCCC(=O)N[C@H](C(=O)N[C@@H](CC(C)C)C(=O)N[C@@H](CO)C(=O)N[C@@H](CC(C)C)C(=O)N[C@@H](CC(=O)O)C(=O)N[C@@H](C(=O)N1CCC[C@H]1C(=O)N[C@H](C(=O)N[C@@H](CCCCN)C(=O)N[C@@H](CC(C)C)C(=O)N[C@@H](CCCCNC(=O)CC[C@H](NC(=O)CCCCCCCCCCCCCCCCCCC(=O)O)C(=O)O)C(=O)N[C@@H](CCCCN)C(=O)N[C@H](C(=O)N[C@@H](CC(C)C)C(=O)N[C@@H](CC(C)C)C(=O)N[C@@H](CCC(=O)O)C(=O)N[C@@H](CCC(N)=O)C(=O)N[C@@H](CCC(=O)O)C(=O)N[C@@H](CCCCN)C(=O)N[C@@H](CCC(N)=O)C(=O)N[C@@H](CCCCN)C(=O)N[C@@H](C)C(=O)N[C@@H](CCC(N)=O)C(=O)N[C@@H](CCCNC(=N)N)C(=O)N[C@@H](CCC(=O)O)C(=O)N[C@@H](CCC(N)=O)C(=O)N[C@@H](C)C(=O)N[C@@H](CCC(=O)O)C(=O)N[C@H](C(=O)N[C@@H](CC(N)=O)C(=O)NC(C)(C)C(=O)N[C@@H](CCC(N)=O)C(=O)N[C@H](C(=O)N[C@@H](CC(C)C)C(=O)N[C@@H](C)C(=O)N[C@@H](CCC(N)=O)C(=O)N[C@H](C(N)=O)C(C)C)[C@@H](C)CC)[C@@H](C)O)[C@@H](C)CC)[C@@H](C)CC)C(C)C)C(C)C
[1]
  EC50 [nM] (cAMP): 0.14 nM
CRF1R receptor
  EC50: 196 nM
  Emax (% I): 50%

B4: SEQ ID NO 223 (peptide)
peptide: Decanoyl-VLSLD[dV]PIKLK([γGlu-C20 diacid])KILLEQEKQKKQREQAETN[Aib]QILAQV-NH2
SMILES: CCCCCCCCCC(=O)N[C@H](C(=O)N[C@@H](CC(C)C)C(=O)N[C@@H](CO)C(=O)N[C@@H](CC(C)C)C(=O)N[C@@H](CC(=O)O)C(=O)N[C@@H](C(=O)N1CCC[C@H]1C(=O)N[C@H](C(=O)N[C@@H](CCCCN)C(=O)N[C@@H](CC(C)C)C(=O)N[C@@H](CCCCNC(=O)CC[C@H](NC(=O)CCCCCCCCCCCCCCCCCCC(=O)O)C(=O)O)C(=O)N[C@@H](CCCCN)C(=O)N[C@H](C(=O)N[C@@H](CC(C)C)C(=O)N[C@@H](CC(C)C)C(=O)N[C@@H](CCC(=O)O)C(=O)N[C@@H](CCC(N)=O)C(=O)N[C@@H](CCC(=O)O)C(=O)N[C@@H](CCCCN)C(=O)N[C@@H](CCC(N)=O)C(=O)N[C@@H](CCCCN)C(=O)N[C@@H](CCCCN)C(=O)N[C@@H](CCC(N)=O)C(=O)N[C@@H](CCCNC(=N)N)C(=O)N[C@@H](CCC(=O)O)C(=O)N[C@@H](CCC(N)=O)C(=O)N[C@@H](C)C(=O)N[C@@H](CCC(=O)O)C(=O)N[C@H](C(=O)N[C@@H](CC(N)=O)C(=O)NC(C)(C)C(=O)N[C@@H](CCC(N)=O)C(=O)N[C@H](C(=O)N[C@@H](CC(C)C)C(=O)N[C@@H](C)C(=O)N[C@@H](CCC(N)=O)C(=O)N[C@H](C(N)=O)C(C)C)[C@@H](C)CC)[C@@H](C)O)[C@@H](C)CC)[C@@H](C)CC)C(C)C)C(C)C
[1]
  EC50 [nM] (cAMP): 0.08 nM
CRF1R receptor
  EC50: 152 nM
  Emax (% I): 58%

Reference: US20260001928A1 (CORTERIA PHARMACEUTICALS, priority 2022, published 2026)
